In patent US9725518B2, “Antibodies that bind to Jagged 1” (Cancer Research Technology Limited, priority 2013, dated 2017):

Tests used:
[1] = biological target: T1, N1 binding to cell surface expressed hJ1 (Homo sapiens, UniProt P78504); assay: Notch binding blocking assay (FACS): N1 EGF11-13 beads staining human J1-expressing cells; parameters: key: +: Complete blocking; X: No blocking
T1 construct: cell expressed full length human J1 (hJ1; HEK293 transfectants); expressed in transfected cells; host or cells: HEK293
Protocol: To functionally identify mAbs with the capacity to disrupt the J1-N1 protein:protein interaction, hybridoma culture supernatants were tested in a FACS-based binding assay. Biotinylated soluble human N1 EGF11-13 recombinant protein was bound to avidin-coated beads and used to stain J1-expressing cells in the presence or absence of each mAb that recognised cell surface hJ1 by FACS. […] The four blocking antibodies of the invention were also able to block the binding of recombinant […] to a biotin-tagged J1 DSL-EGF3 recombinant protein in an ELISA assay (FIG. 1B). […] The four blocking mAbs of the invention were purified from serum-free culture supernatants and equal concentrations of purified antibodies were used to compare their activity in subsequent assays (unless hybridoma supernatant was specified). Sequence conservation across the DSL domain raised the possibility that the J1 mAbs may also be able to bind the Jagged 2 (J2) protein. Antibody binding specificity was initially tested by immunocytochemical labelling of cytospin samples of hJ1 and hJ2 transfectants (FIG. 2). All antibodies stained J1 transfectants but none stained the J2 transfected cells, and J2 expression in the same experiment was confirmed using a commercial anti-J2 antibody. The specificity of the purified mAbs was further investigated in mammalian cells transfected with hJ2, human Delta-like ligand 4 (hDLL4), or mJ1 (FIG. 3). Transfectants were FACS stained with 10 μg/ml of each of the four blocking mAbs.
To test the blocking efficiencies of the J1 mAbs, purified mAbs were titrated to determine the concentration required to block recombinant N1 binding to cell surface expressed hJ1. Beads coated with a bacterially-expressed N1 EGF11-13 protein were used to stain the hJ1-expressing cells in the presence of various concentrations of mAbs.
The FACS-based binding assay using biotinylated soluble human N1 EGF11-13 recombinant protein bound to avidin-coated fluorescent beads to stain J1-expressing cells was performed using a dilution series of each variant mAb to test their ability to block J1 binding to N1 by FACS (Table 7). […] Thus 12/16 J1-65D1 variants V1-12 and all J1-183D variants have the desired binding and blocking activity.
Human N1 EGF11-13 (411-526) was expressed in E. coli, refolded in vitro and labelled with purple fluorescent avidin-coated beads (Spherotech) as previously described. HEK293 cells transfected with human J1 or B16F10 cells transfected with mouse J1 were stained with N1 fluorescent beads in the presence of J1 antibody supernatants or purified antibody (murine, chimeric or humanised) diluted in HBBS/10% FCS. Cells were washed and re-suspended in staining buffer before being analysed with a FACSCalibur and data analysis with CellQuest. HEK293 cells transfected with human Jagged 2 and B16F10 cells transfected with human and mouse DLL4 were stained similarly to test blocking specificity.

[2] = Soluble aggregates of transiently expressed antibodies; assay type: physicochemical; settings: Protein A purified antibody
From the text: The protein yield of these antibodies, their levels of soluble aggregates and their binding affinity to the immunogen (J1-DE3) are illustrated in (Table 6).

[3] = final antibody concentration 0.2 μg/ml
[4] = final antibody concentration 0.4 μg/ml
[5] = final antibody concentration 0.6 μg/ml
[6] = final antibody concentration 1.0 μg/ml
[7] = final antibody concentration 2.0 μg/ml

T1 sequence (P78504 34-1218): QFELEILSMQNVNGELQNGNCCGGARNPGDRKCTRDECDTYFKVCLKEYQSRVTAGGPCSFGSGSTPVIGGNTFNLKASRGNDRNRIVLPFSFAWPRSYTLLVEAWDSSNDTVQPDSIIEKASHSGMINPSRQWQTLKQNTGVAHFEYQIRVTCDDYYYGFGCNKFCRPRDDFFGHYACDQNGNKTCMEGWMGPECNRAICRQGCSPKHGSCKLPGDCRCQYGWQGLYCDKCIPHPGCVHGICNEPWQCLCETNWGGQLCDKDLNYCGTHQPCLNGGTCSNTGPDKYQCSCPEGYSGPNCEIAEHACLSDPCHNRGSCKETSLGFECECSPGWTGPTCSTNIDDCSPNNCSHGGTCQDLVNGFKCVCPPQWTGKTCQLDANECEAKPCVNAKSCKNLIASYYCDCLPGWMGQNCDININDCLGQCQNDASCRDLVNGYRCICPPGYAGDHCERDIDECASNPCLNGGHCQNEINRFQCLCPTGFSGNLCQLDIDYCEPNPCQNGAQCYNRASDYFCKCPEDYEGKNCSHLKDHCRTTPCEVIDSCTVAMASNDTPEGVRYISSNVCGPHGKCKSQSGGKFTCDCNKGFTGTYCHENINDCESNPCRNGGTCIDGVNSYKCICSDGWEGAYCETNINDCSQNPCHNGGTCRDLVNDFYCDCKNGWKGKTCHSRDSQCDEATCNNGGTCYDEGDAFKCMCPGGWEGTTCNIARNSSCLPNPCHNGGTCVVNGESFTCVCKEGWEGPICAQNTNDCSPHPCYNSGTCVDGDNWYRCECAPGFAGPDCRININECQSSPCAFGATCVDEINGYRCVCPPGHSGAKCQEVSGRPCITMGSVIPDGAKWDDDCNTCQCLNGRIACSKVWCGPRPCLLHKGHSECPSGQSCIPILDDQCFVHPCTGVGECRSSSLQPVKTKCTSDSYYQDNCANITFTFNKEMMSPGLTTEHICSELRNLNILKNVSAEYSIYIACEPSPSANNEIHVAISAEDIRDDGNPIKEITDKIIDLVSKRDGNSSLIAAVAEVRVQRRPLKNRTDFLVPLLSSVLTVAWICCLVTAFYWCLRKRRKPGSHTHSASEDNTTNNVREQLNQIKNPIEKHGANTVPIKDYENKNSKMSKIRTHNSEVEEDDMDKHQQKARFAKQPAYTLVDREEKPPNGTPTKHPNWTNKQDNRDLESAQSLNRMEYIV

Molecule	Blocking of Notch1 binding to cell surface Jagged 1 [1, 3]	Blocking of Notch1 binding to cell surface Jagged 1 [1, 4]	Blocking of Notch1 binding to cell surface Jagged 1 [1, 5]	Blocking of Notch1 binding to cell surface Jagged 1 [1, 6]	% soluble aggregate [2] [%]	Blocking of Notch1 binding to cell surface Jagged 1 [1, 7]
J1-65D variant 1: humanised/de-immunised J1-65D: J1-65D_VL_1 + J1-65D_VH_1 (antibody, V domains shown) VH: QVQLVQSGAELKKPGSSVKVSCKASGYTFTDYEMHWVRQAPGQGLEWMGAIQPGGGGTAYNQKFKGRVTLTADKSTSTAYMELSSLRSEDTAVYYCTRRGYDDYPFAYWGQGTLVTVSSASTKGP VL: DIQMTQSPSSLSASVGDRVTITCRASGNIHNYLAWYQQKPGKAPKLLIYNAKTLADDVPSRFSGSGSGTDYTLTISSLQPEDFATYYCQHFWSAPWTFGGGTKLEIKRT	X	+ (Complete blocking)	+ (Complete blocking)	+ (Complete blocking)	0	
J1-65D variant 10: humanised/de-immunised J1-65D: J1-65D_VL_3 + J1-65D_VH_2 (antibody, V domains shown) VH: QVQLVQSGAELKKPGSSVKVSCKASGYTFTDYEMHWVRQAPGQGLEWMGAIQPGGGGTAYAQKFKGRVTLTADKSTSTAYMELSSLRSEDTAVYYCTRRGYDDYPFAYWGQGTLVTVSSASTKGP VL: DIQMTQSPSSLSASVGDRVTITCRASGNIHNYLAWYQQKPGKAPKLLIYNAKTLADAVPSRFSGSGSGTDYTLTISSLQPEDFATYYCQHFWSAPWTFGQGTKLEIKRT	X	+ (Complete blocking)	+ (Complete blocking)	+ (Complete blocking)	0.59	
J1-65D variant 6: humanised/de-immunised J1-65D: J1-65D_VL_2 + J1-65D_VH_2 (antibody, V domains shown) VH: QVQLVQSGAELKKPGSSVKVSCKASGYTFTDYEMHWVRQAPGQGLEWMGAIQPGGGGTAYAQKFKGRVTLTADKSTSTAYMELSSLRSEDTAVYYCTRRGYDDYPFAYWGQGTLVTVSSASTKGP VL: DIQMTQSPSSLSASVGDRVTITCRASGNIHNYLAWYQQKPGKAPKLLIYNAKTLADAVPSRFSGSGSGTDYTLTISSLQPEDFATYYCQHFWSAPWTFGGGTKLEIKRT	X	+ (Complete blocking)	+ (Complete blocking)	+ (Complete blocking)	0	
J1-65D variant 11: humanised/de-immunised J1-65D: J1-65D_VL_3 + J1-65D_VH_3 (antibody, V domains shown) VH: QVQLVQSGAEVKKPGSSVKVSCKASGYTFTDYEMHWVRQAPGQGLEWMGAIQPGGGGTAYAQKFQGRVTLTADKSTSTAYMELSSLRSEDTAVYYCTRRGYDDYPFAYWGQGTLVTVSSASTKGP VL: DIQMTQSPSSLSASVGDRVTITCRASGNIHNYLAWYQQKPGKAPKLLIYNAKTLADAVPSRFSGSGSGTDYTLTISSLQPEDFATYYCQHFWSAPWTFGQGTKLEIKRT	X	+ (Complete blocking)	+ (Complete blocking)	+ (Complete blocking)	1.00	
J1-65D variant 2: humanised/de-immunised J1-65D: J1-65D_VL_1 + J1-65D_VH_2 (antibody, V domains shown) VH: QVQLVQSGAELKKPGSSVKVSCKASGYTFTDYEMHWVRQAPGQGLEWMGAIQPGGGGTAYAQKFKGRVTLTADKSTSTAYMELSSLRSEDTAVYYCTRRGYDDYPFAYWGQGTLVTVSSASTKGP VL: DIQMTQSPSSLSASVGDRVTITCRASGNIHNYLAWYQQKPGKAPKLLIYNAKTLADDVPSRFSGSGSGTDYTLTISSLQPEDFATYYCQHFWSAPWTFGGGTKLEIKRT	X	+ (Complete blocking)	+ (Complete blocking)	+ (Complete blocking)	0	
J1-65D variant 7: humanised/de-immunised J1-65D: J1-65D_VL_2 + J1-65D_VH_3 (antibody, V domains shown) VH: QVQLVQSGAEVKKPGSSVKVSCKASGYTFTDYEMHWVRQAPGQGLEWMGAIQPGGGGTAYAQKFQGRVTLTADKSTSTAYMELSSLRSEDTAVYYCTRRGYDDYPFAYWGQGTLVTVSSASTKGP VL: DIQMTQSPSSLSASVGDRVTITCRASGNIHNYLAWYQQKPGKAPKLLIYNAKTLADAVPSRFSGSGSGTDYTLTISSLQPEDFATYYCQHFWSAPWTFGGGTKLEIKRT	X	+ (Complete blocking)	+ (Complete blocking)	+ (Complete blocking)	0	
J1-65D variant 3: humanised/de-immunised J1-65D: J1-65D_VL_1 + J1-65D_VH_3 (antibody, V domains shown) VH: QVQLVQSGAEVKKPGSSVKVSCKASGYTFTDYEMHWVRQAPGQGLEWMGAIQPGGGGTAYAQKFQGRVTLTADKSTSTAYMELSSLRSEDTAVYYCTRRGYDDYPFAYWGQGTLVTVSSASTKGP VL: DIQMTQSPSSLSASVGDRVTITCRASGNIHNYLAWYQQKPGKAPKLLIYNAKTLADDVPSRFSGSGSGTDYTLTISSLQPEDFATYYCQHFWSAPWTFGGGTKLEIKRT	X	+ (Complete blocking)	+ (Complete blocking)	+ (Complete blocking)	1.67	
J1-65D variant 13: humanised/de-immunised J1-65D: J1-65D_VL_4 + J1-65D_VH_1 (antibody, V domains shown) VH: QVQLVQSGAELKKPGSSVKVSCKASGYTFTDYEMHWVRQAPGQGLEWMGAIQPGGGGTAYNQKFKGRVTLTADKSTSTAYMELSSLRSEDTAVYYCTRRGYDDYPFAYWGQGTLVTVSS VL: DIQMTQSPSSLSASVGDRVTITCRASQGIHNYLAWYQQKPGKAPKLLIYNAKTLADAVPSRFSGSGSGTDYTLTISSLQPEDFATYYCQQFWSAPWTFGQGTKLEIK					2.82	Partial
J1-65D variant 15: humanised/de-immunised J1-65D: J1-65D_VL_4 + J1-65D_VH_3 (antibody, V domains shown) VH: QVQLVQSGAEVKKPGSSVKVSCKASGYTFTDYEMHWVRQAPGQGLEWMGAIQPGGGGTAYAQKFQGRVTLTADKSTSTAYMELSSLRSEDTAVYYCTRRGYDDYPFAYWGQGTLVTVSS VL: DIQMTQSPSSLSASVGDRVTITCRASQGIHNYLAWYQQKPGKAPKLLIYNAKTLADAVPSRFSGSGSGTDYTLTISSLQPEDFATYYCQQFWSAPWTFGQGTKLEIK				X	5.29	Partial
J1-65D variant 14: humanised/de-immunised J1-65D: J1-65D_VL_4 + J1-65D_VH_2 (antibody, V domains shown) VH: QVQLVQSGAELKKPGSSVKVSCKASGYTFTDYEMHWVRQAPGQGLEWMGAIQPGGGGTAYAQKFKGRVTLTADKSTSTAYMELSSLRSEDTAVYYCTRRGYDDYPFAYWGQGTLVTVSS VL: DIQMTQSPSSLSASVGDRVTITCRASQGIHNYLAWYQQKPGKAPKLLIYNAKTLADAVPSRFSGSGSGTDYTLTISSLQPEDFATYYCQQFWSAPWTFGQGTKLEIK				X	6.61	Partial
